Data published in patent US20150355199A1 (ROCHE DIAGNOSTICS OPERATIONS, published 2015).
Each block holds one binder with its values, some of them ahead of it.

Key:
[1] = target: T1, native human complement factor H (CFH) (human, UniProt P08603 19-1231); test: indirect ELISA, hybridoma supernatant on CFH captured by biotinylated L20/3 Fab on streptavidin plates
T1 construct: Native CFH; also called native CFH; serum-purified CFH
Protocol: (§1) MAb production in hybridoma culture supernatants was assayed by indirect enzyme-linked immunosorbent assay (ELISA). Streptavidin coated microtiter plates (Microcoat, Bernried, Germany) were incubated with biotinylated Fab fragment of the MAB<CFH/CFHR1>M-L20/3 monoclonal antibody diluted 1:2000 in incubation buffer (phosphate buffered saline pH 7.3, 0.5% Byco C) for 1 h at room temperature. After washing with washing buffer (0.9% NaCl solution, 0.05% Tween 20) the microtiter plates were incubated for 1 h at room temperature with 100 ng/ml purified recombinant CFHR1 and CFH protein diluted in incubation buffer. The microtiter plates were washed again and hybridoma supernatants were added to the coated well and incubated for 1 h at room temperature. After washing, the bound monoclonal antibodies (MAbs) were detected by a 1 h incubation with goat anti-mouse IgG peroxidase conjugate (Calbiochem, Germany) diluted 1:5000 in incubation buffer followed by substrate reaction with ABTS solution (Roche, Germany) after further washing step. The color change was measured in an ELISA reader at 405/490 nm after 20-30 min. Some CFHR1-specific clones without any crossreactivity against CFH were selected.

[2] = target: T2, recombinant CFHR1-1-5 (tag-less, full-length mature human complement factor H-related protein 1) (human, UniProt Q03591 19-330); test: indirect ELISA, hybridoma supernatant on CFHR1 captured by biotinylated L20/3 Fab on streptavidin plates
T2 construct: also called recCFHR1
T2 sequence: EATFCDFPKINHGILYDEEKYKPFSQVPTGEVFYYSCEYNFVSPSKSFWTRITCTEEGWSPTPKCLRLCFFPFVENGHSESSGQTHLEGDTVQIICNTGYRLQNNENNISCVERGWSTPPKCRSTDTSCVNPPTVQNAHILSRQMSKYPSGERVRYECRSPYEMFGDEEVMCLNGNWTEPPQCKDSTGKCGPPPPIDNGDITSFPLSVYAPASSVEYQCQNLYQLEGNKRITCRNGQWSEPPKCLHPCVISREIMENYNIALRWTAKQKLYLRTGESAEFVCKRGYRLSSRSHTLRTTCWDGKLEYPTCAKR
Protocol: as §1

CFHR2-GS-Avi-GS-His8 [3] = target: T3, CFHR2-GS-Avi-GS-His8 (human); test: sandwich ECLIA, L20/3 Fab-Bi capture + 4.2.53-Ru detection (signal needs both antibodies); sample 50 µg/ml recombinant CFHR2
T3 construct: Tagged recombinant protein from HEK293 cells; also called recombinant CFHR2
T3 chain: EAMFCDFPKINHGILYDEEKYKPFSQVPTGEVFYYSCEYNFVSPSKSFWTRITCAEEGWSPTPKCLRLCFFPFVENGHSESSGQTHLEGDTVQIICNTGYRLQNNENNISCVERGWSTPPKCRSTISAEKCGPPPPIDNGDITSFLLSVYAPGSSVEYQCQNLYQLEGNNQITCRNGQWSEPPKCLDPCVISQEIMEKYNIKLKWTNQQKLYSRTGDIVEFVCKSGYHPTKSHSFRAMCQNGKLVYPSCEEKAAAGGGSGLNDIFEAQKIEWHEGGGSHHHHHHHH

CFHR2-GS-Avi-GS-His8 [4] = target: T3, CFHR2-GS-Avi-GS-His8; test: sandwich ECLIA, L20/3 Fab-Bi capture + 4.2.53-Ru detection (signal needs both antibodies); sample 100 µg/ml recombinant CFHR2
[5] = target: T2, recombinant CFHR1-1-5 (tag-less, …); test: SPR (BiaCore), antibody captured by rabbit anti-mouse IgG on CM5 chip, antigen in solution
Protocol: (§2) The antibodies MAB<CFH/CFHR1>M-L20/3, MAB<CFHR1>M-442127, MAB<CFHR1>M-4.1.3 and MAB<CFHR1>M-5.1.5 were analyzed on the BiaCore. The chip CM5 coated with a rabbit anti-Mouse IgG was used to bind the purified monoclonal mouse antibodies. In the next step native CFH or the recombinant CFHR1, CFHR2, CFHR3, CFHR4B or CFHR5 proteins according to SEQ ID No.: 9 to 13 were added to determine the binding affinities of the different antibodies.

CFHR2-GS-Avi-GS-His8 [6] = target: T3, CFHR2-GS-Avi-GS-His8; test: as above
Protocol: as §2

CFHR5-GS-Avi-GS-His8 = target: T4, CFHR5-GS-Avi-GS-His8 (human, UniProt Q9BXR6 19-569); test: SPR (BiaCore), antibody captured by rabbit anti-mouse IgG on CM5 chip; n.d. = not detectable
T4 construct: Tagged recombinant protein from HEK293 cells; also called recombinant CFHR5
T4 sequence: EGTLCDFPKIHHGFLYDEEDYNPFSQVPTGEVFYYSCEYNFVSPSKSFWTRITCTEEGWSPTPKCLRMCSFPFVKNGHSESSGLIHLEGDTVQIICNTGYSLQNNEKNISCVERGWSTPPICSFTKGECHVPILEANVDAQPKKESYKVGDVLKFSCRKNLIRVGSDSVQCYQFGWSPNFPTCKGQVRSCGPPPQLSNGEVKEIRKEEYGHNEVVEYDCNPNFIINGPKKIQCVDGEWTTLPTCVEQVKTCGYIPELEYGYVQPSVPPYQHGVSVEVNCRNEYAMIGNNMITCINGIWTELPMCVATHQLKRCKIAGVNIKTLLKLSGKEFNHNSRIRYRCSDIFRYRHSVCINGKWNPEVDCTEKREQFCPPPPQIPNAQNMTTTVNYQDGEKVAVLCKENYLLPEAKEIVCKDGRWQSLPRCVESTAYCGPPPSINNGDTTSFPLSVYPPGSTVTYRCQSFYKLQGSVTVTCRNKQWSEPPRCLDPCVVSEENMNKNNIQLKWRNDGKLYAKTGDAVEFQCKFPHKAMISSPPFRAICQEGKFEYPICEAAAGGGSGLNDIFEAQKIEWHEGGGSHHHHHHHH
Protocol: as §2

CFHL1-GS-Avi-GS-His8 = target: T5, CFHL1-GS-Avi-GS-His8 (human, UniProt P08603 19-445); test: as above
T5 construct: also called complement factor H isoform 2
Protocol: as §2

[7] = target: T1, native human complement factor H (CFH); test: as above
Protocol: as §2

CFHR3-GS-Avi-GS-His8 = target: T6, CFHR3-GS-Avi-GS-His8 (human, UniProt Q02985 19-330); test: as above
T6 construct: Tagged recombinant protein from HEK293 cells; also called recombinant CFHR3
T6 sequence: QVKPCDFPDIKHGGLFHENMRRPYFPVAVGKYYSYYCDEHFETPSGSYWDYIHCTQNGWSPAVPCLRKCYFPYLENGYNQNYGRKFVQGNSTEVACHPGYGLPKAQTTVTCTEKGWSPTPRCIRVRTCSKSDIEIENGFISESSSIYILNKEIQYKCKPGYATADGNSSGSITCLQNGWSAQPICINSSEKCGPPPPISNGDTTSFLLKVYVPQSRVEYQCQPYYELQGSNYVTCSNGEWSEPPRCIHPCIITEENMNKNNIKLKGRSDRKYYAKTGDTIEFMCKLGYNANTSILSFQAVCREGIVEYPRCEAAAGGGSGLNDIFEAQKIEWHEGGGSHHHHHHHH
Protocol: as §2

[8] = target: T7, CFHR4-GS-Avi-GS-His8 (CFHR4 Variant B) (human); test: as above
T7 construct: Tagged recombinant protein from HEK293 cells; also called CFHR4B; recombinant CFHR4B
T7 chain: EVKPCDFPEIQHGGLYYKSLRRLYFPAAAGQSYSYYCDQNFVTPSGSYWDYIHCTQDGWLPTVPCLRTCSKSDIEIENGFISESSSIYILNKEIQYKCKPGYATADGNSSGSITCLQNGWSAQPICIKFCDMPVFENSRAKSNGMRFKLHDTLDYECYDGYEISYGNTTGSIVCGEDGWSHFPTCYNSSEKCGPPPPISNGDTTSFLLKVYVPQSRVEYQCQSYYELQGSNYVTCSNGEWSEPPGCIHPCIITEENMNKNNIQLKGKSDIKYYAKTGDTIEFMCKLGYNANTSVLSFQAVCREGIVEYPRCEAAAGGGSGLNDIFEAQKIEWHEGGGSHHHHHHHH
Protocol: as §2

CFHR2-GS-Avi-GS-His8 [9] = target: T3, CFHR2-GS-Avi-GS-His8; test: sandwich ECLIA, L20/3 Fab-Bi capture + 5.3.23-Ru detection (signal needs both antibodies); sample 50 µg/ml recombinant CFHR2
CFHR2-GS-Avi-GS-His8 [10] = target: T3, CFHR2-GS-Avi-GS-His8; test: sandwich ECLIA, L20/3 Fab-Bi capture + 5.3.23-Ru detection (signal needs both antibodies); sample 100 µg/ml recombinant CFHR2
CFHR2-GS-Avi-GS-His8 [11] = target: T3, CFHR2-GS-Avi-GS-His8; test: sandwich ECLIA, L20/3 Fab-Bi capture + 4.2.74-Ru detection (signal needs both antibodies); sample 50 µg/ml recombinant CFHR2
CFHR2-GS-Avi-GS-His8 [12] = target: T3, CFHR2-GS-Avi-GS-His8; test: sandwich ECLIA, L20/3 Fab-Bi capture + 4.2.74-Ru detection (signal needs both antibodies); sample 100 µg/ml recombinant CFHR2

B2: MAB<CFHR1>M-4.1.3 (antibody, V domains shown)
VH: DVQLQESGPGLVKPSQSLSLTCTVTGYSITSEYAWNWIRQFPGNKLEWMAYINSSGKSSYNPSLKSRISVTRDTSKNQFFLQLNSVTTEDTATYYCAREGYGNYPAWFAYWGQGTLVTVSA
VL: DIQMTQTTSSLSASLGDRVTISCSASQDINNYLNWYQQKPDGTVKLLIYYTSNLHSGVPSRFSGSGSGTDYSLTISNLEPEDIATYFCQQYSKLPRTFGGGTKLEIKR
notes: In-house mouse monoclonal IgG; also called MAB<CFHR1>M-4.1.3-Ru
- Kd [5]: 0.8 nM
- Kd (CFHR2-GS-Avi-GS-His8 [6]): 19 nM
- binding result (CFHR5-GS-Avi-GS-His8): no binding
- binding result (CFHL1-GS-Avi-GS-His8): no binding
- binding result [7]: no binding
- binding result (CFHR3-GS-Avi-GS-His8): no binding
- binding result [8]: no binding

B3: MAB<CFHR1>M-5.1.5 (antibody, V domains shown)
VH: EVQLVESGGDLVKPGGSLKLSCAASGFTFSSYDMSWVRQTPDKRLEWVATISSGGSNTYYPDSVKGRFTISRDNAKNTLYLQMSSLKSEDTAMYYCARQGYYYGSSYYAMDYWGQGTSVTVSS
VL: QIVLTQSPAIMSASPGEKVTMTCRASSSVSSSYLHWYQQKPGSSPKLWIYITSSLASGVPARFSGSGSGTSYSLTISSVEAEDGATYYCQQYHSSPYTFGSGTKLEIK
modifications: In the ECLIA sandwich assays the IgG was ruthenylated (Ru-(bpy)2-bpyCO-OSu). The BiaCore results used purified antibody with no label mentioned.
notes: It was used ruthenylated (-Ru) in the sandwich ECLIA; also called clone 5.1.5; MAK<CFHR1>M-5.1.5; copies: 2 + 2
- Kd [5]: 0.01 nM
- Kd (CFHR2-GS-Avi-GS-His8 [6]): 0.3 nM
- binding result (CFHR5-GS-Avi-GS-His8): no binding
- binding result (CFHL1-GS-Avi-GS-His8): no binding
- binding result [7]: no binding
- binding result (CFHR3-GS-Avi-GS-His8): no binding
- binding result [8]: no binding

The next lines start with the values.

- binding result [1]: no binding (tested: 100 ng/ml CFH)
- binding result [2]: binds
- Measured CFHR1 (CFHR2-GS-Avi-GS-His8 [3]): 0 µg/mL
- Measured CFHR1 (CFHR2-GS-Avi-GS-His8 [4]): 0.09 µg/mL
B1: MAB<CFHR1>M-4.2.53 (antibody, V domains shown)
VH: QVQLKESGPGLVAPSQSLSITCTVSGFSLTSYGVHWVRQPPGKGLEWLGVIWAGGNTDYISALMSRLSISKDNSKSQVFLKINRLQTDDTAVYYCARDHYDGYYMEYWGQGTSVTVSP
VL: DIQMTQSPSSLSASLGGKVTITCKASQDINKYLAWYQHKPGKGPRLLIHYTFTLQPGIPSRFSGGGSGRDYSFNINNLEPEDIATYYCLQYDNLYTFGGGTKLEIKR
notes: In-house mouse monoclonal IgG; also called MAB<CFHR1>M-4.2.53-Ru

- binding result [1]: no binding (tested: 100 ng/ml CFH)
- binding result [2]: binds
- Measured CFHR1 (CFHR2-GS-Avi-GS-His8 [9]): 0 µg/mL
- Measured CFHR1 (CFHR2-GS-Avi-GS-His8 [10]): 0 µg/mL
B4: MAB<CFHR1>M-5.3.23 (antibody, V domains shown)
VH: EVKLEESGGGLVQPGGSMKLSCDGSGFTFSDAWMGWVRQSPEKGLEWVSEIRNRANNHETHYAESVKGRFTISRDDSKSRVYLQMNSLRAEDTGIYYCNGRYYDSYWFLDVWGAGTTVTVSS
VL: NIVMTQTPKFLPVSVGDRVTMTCKASQSVGYNVAWFQQKPGQSPKLLIYYASNRYTGVPDRFTGSGGGTDFTFTISSVQVEDLAVYFCQQHYISPTFGSGTKLEIKR
notes: In-house mouse monoclonal IgG; also called MAB<CFHR1>M-5.3.23-Ru

- binding result [1]: no binding (tested: 100 ng/ml CFH)
- binding result [2]: binds
- Measured CFHR1 (CFHR2-GS-Avi-GS-His8 [11]): 0 µg/mL
- Measured CFHR1 (CFHR2-GS-Avi-GS-His8 [12]): 0 µg/mL
B5: MAB<CFHR1>M-4.2.74 (antibody, V domains shown)
VH: DVRLVESGGGLVQPGGSRKLSCAASGFTFSSFGMHWVRQAPEKGLEWVAYISSGSSTIYYADTVKGRFTISRDNPKNTLFLQMTSLRSEDTAMYYCARWGNSYAMDYWGQGTSVTVSS
VL: DIVMTQSPSSLTVTAGEKVTMSCKSSQSLLNRGNQKNYLTWYQQKPGQPPKLLIYWASTRESGVPDRFTGSGSGTDFTLTISSVLAEDLAVYYCQIAYSSPFTFGSGTKLEIKR
notes: In-house mouse monoclonal IgG; also called MAB<CFHR1>M-4.2.74-Ru
